Results from patent US20130143227A1 (University of Texas, published 2013).

How the values were obtained:
Experiment in all cases: cell-based or functional assay
[1] = molecular target: T1, Myc-LGR4 (mouse LGR4, predicted mature form aa23-951, N-terminal Myc tag), expressed on HEK293 cells (mouse, UniProt A2ARI4 23-951)
T1 sequence: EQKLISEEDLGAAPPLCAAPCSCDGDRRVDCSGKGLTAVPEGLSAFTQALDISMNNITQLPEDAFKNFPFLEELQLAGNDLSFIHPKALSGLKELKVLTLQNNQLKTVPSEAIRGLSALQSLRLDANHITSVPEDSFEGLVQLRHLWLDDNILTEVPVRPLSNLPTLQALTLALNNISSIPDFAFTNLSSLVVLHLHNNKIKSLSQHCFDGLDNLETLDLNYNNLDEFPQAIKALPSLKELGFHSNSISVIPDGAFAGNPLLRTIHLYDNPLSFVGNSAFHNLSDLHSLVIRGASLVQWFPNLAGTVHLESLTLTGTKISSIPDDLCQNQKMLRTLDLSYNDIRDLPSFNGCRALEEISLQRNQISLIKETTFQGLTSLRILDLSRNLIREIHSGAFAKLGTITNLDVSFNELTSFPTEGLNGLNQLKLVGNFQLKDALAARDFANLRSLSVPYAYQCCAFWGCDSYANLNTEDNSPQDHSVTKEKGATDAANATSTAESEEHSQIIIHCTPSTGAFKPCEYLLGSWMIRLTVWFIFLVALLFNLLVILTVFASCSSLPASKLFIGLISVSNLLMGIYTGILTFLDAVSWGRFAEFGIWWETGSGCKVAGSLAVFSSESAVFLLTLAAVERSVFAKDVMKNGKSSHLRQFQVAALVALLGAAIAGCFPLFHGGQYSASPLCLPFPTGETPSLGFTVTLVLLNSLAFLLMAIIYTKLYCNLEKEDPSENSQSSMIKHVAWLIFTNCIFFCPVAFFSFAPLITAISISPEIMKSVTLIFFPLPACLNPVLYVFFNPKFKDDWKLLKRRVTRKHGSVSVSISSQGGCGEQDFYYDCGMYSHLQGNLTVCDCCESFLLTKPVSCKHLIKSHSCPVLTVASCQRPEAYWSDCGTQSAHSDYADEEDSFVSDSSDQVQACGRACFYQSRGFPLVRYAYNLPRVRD

[2] = molecular target: T2, Myc-LGR5 (human LGR5, predicted mature form aa21-907, N-terminal Myc tag), expressed on HEK293 cells (human, UniProt O75473 22-907)
T2 sequence: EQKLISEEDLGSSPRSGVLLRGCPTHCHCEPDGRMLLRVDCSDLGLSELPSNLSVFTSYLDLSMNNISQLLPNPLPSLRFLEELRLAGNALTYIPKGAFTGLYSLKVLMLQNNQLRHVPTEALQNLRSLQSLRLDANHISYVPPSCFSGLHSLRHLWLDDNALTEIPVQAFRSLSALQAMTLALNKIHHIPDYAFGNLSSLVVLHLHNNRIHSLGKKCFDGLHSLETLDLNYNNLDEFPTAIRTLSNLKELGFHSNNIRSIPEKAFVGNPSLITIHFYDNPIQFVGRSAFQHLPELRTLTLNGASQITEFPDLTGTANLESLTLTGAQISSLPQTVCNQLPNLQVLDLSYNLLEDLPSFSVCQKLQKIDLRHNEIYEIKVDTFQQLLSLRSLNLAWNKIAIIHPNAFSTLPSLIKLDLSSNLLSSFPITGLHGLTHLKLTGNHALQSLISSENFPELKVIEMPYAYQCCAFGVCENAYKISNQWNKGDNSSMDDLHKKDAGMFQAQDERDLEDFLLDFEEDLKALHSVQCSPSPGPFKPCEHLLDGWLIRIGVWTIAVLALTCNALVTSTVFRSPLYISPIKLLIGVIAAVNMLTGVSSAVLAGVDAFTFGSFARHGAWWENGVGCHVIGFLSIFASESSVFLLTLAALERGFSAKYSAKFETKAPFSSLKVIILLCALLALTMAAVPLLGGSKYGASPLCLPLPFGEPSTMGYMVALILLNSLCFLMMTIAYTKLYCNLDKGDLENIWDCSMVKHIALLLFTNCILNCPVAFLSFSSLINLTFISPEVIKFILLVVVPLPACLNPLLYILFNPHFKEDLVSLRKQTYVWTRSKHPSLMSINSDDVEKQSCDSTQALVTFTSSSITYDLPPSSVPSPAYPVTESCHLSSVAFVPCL

[3] = molecular target: T3, FLAG-LGR6 (human LGR6, predicted mature form aa25-967, N-terminal FLAG tag), expressed on HEK293 cells (human, UniProt Q9HBX8 26-967)
T3 sequence: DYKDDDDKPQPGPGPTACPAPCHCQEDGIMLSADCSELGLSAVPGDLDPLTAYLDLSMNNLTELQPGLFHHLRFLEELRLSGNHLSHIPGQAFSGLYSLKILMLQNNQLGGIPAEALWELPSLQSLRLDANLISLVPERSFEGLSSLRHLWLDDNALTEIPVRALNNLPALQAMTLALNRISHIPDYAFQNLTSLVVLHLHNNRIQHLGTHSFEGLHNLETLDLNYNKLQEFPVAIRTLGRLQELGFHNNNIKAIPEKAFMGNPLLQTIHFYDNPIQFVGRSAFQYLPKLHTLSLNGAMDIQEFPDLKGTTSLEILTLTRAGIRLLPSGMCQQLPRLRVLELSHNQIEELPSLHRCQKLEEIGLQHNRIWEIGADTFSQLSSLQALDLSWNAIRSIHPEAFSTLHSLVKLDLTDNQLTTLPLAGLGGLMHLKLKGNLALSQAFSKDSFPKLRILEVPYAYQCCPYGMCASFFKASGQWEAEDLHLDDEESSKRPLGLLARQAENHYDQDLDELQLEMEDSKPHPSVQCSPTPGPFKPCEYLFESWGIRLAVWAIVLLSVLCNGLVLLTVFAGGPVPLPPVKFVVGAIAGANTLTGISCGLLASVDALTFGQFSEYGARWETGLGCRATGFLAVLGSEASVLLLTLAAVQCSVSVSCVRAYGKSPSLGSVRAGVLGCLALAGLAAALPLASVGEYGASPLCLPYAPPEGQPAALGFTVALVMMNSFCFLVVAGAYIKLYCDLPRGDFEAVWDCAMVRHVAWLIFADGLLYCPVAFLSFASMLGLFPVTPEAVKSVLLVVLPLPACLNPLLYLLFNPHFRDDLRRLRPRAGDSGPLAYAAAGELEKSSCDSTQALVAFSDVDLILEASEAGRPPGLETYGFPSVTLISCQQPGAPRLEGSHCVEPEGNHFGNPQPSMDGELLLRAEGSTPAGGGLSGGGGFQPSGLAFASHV

Row | Binder | maximum effect (Emax, fraction of vector control), β-catenin reporter [1] | potency (EC50, nM), β-catenin reporter (Super 8x TOPFlash) with Wnt3a CM [1] | maximum effect (Emax, fraction of vector control), β-catenin reporter [2] | potency (EC50, nM), β-catenin reporter (Super 8x TOPFlash) with Wnt3a CM [2] | maximum effect (Emax, fraction of vector control), β-catenin reporter [3] | potency (EC50, nM), β-catenin reporter (Super 8x TOPFlash) with Wnt3a CM [3]
1 | recombinant human RSPO3 (ligand, Bought from R&D Systems; also called R-spondin 3) QNASRGRRQRRMHPNVSQGCQGGCATCSDYNGCLSCKPRLFFALERIGMKQIGVCLSSCPSGYYGTRYPDINKCTKCKADCDTCFNKNFCTKCKSGFYLHLGKCLDNCPEGLEANNHTMECVSIVHCEVSEWNPWSPCTKKGKTCGFKRGTETRVREIIQHPSAKGNLCPPTNETRKCTVQRKKCQKGERGKKGRERKRKKPNKGESKEAIPDSKSLESSKEIPEQRENKQQQKKRKVQDKQKSVSVSTVH | 0.9 fraction of vector control | 0.02 nM | 1.1 fraction of vector control | 0.01 nM | 0.5 fraction of vector control | 0.05 nM
2 | recombinant human RSPO4 (ligand, Bought from R&D Systems; also called R-spondin 4) LNRRKKQVGTGLGGNCTGCIICSEENGCSTCQQRLFLFIRREGIRQYGKCLHDCPPGYFGIRGQEVNRCKKCGATCESCFSQDFCIRCKRQFYLYKGKCLPTCPPGTLAHQNTRECQGECELGPWGGWSPCTHNGKTCGSAWGLESRVREAGRAGHEEAATCQVLSESRKCPIQRPCPGERSPGQKKGRKDRRPRKDRKLDRRLDVRPRQPGLQP |  | 0.09 nM |  | 0.4 nM |  | 
3 | recombinant human RSPO1 (ligand, UniProt Q2MKA7 21-263, looked up, Bought from R&D Systems; also called R-spondin 1) SRGIKGKRQRRISAEGSQACAKGCELCSEVNGCLKCSPKLFILLERNDIRQVGVCLPSCPPGYFDARNPDMNKCIKCKIEHCEACFSHNFCTKCKEGLYLHKGRCYPACPEGSSAANGTMECSSPAQCEMSEWSPWGPCSKKQQLCGFRRGSEERTRRVLHAPVGDHAACSDTKETRRCTVRRVPCPEGQKRRKGGQGRRENANRNLARKESKEAGAGSRRRKGQQQQQQQGTVGPLTSAGPA |  | 0.02 nM |  | 0.008 nM |  | 0.03 nM
4 | recombinant human RSPO2 (ligand, UniProt Q6UXX9 22-243, looked up, Bought from R&D Systems; also called R-spondin 2) QGNRWRRSKRASYVSNPICKGCLSCSKDNGCSRCQQKLFFFLRREGMRQYGECLHSCPSGYYGHRAPDMNRCARCRIENCDSCFSKDFCTKCKVGFYLHRGRCFDECPDGFAPLEETMECVEGCEVGHWSEWGTCSRNNRTCGFKWGLETRTRQIVKKPVKDTILCPTIAESRRCKMTMRHCPGGKRTPKAKEKRNKKKKRKLIERAQEQHSVFLATDRANQ | 0.9 fraction of vector control | 0.0003 nM | 1 fraction of vector control | 0.001 nM | 0.5 fraction of vector control | 0.01 nM
